Laboratory results published in patent US20230139885A1 (FUNDACI INSTITUT DE RECERCA CONTRA LA LEUC MIA JOSEP …, published 2023).

Biological target: T1, human CD22 on cells (human, UniProt P20273 20-847)
T1 construct: whole, on cells; also called CD22-transfected 300.19 cells; CD22+ Raji cells
T1 sequence (looked up): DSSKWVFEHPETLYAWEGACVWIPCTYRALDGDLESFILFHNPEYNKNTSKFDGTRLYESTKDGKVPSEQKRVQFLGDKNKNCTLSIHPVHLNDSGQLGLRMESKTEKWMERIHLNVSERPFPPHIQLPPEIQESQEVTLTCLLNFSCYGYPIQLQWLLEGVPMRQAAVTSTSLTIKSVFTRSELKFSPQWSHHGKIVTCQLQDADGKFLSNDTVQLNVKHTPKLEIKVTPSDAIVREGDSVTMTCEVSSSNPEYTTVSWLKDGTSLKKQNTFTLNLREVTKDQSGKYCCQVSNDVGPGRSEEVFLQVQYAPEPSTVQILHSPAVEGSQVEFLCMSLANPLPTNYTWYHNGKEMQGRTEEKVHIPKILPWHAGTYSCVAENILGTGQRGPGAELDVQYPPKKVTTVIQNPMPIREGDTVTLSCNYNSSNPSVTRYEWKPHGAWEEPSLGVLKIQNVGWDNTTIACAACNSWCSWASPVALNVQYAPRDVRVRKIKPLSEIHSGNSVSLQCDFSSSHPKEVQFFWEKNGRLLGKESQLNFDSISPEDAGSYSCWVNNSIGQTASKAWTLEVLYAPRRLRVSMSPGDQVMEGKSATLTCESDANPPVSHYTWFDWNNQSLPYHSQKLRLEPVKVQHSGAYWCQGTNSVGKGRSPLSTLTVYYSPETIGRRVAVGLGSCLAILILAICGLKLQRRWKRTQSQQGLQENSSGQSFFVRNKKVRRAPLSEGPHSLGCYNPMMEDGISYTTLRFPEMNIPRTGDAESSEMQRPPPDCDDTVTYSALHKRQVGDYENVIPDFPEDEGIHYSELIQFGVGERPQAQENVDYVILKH
Test: flow cytometry of hybridoma supernatants on CD22-transfected 300.19 cells
From the text: MoAbs reactive with human CD22 were generated by fusion of NS-1 myeloma cells with splenocytes from a Balb/c mouse previously immunized three times with 30×10⁶ CD22-transfected 300.19 cells. Supernatants from hybridoma-containing wells were screened by flow cytometry for moAbs reactive with CD22-transfected 300.19 cells. Three reactive hybridomas were chosen for further characterization and were subcloned by limiting dilution (clones hCD22.7, hCD22.316 and hCD22.401). The three antibodies were of the IgG1K isotype, as determined using a mouse moAb isotyping kit (Boehringer Mannheim, Mannheim, Germany). Antibody specificity was further validated using a CD22-transfected COS cell line (pUNO1-hCD22; InvivoGen, Toulouse, France), the cell lines Raji, Daudi, […], U266 and Jurkat, and peripheral blood (PB) mononuclear cells (PBMCs). CD22 epitope binding to the hCD22.7 clone was determined by crossblocking with an antibody against the N-terminal domain of CD22 (S-HCL-1). The CD22-specific scFv derived from the hCD22.7 clone was obtained using the mouse IgG Library Primer Set (Progen, Heidelberg, Germany).

B1: anti-CD22 monoclonal antibody clone hCD22.7 (antibody, V domains shown)
VH: EVQLQESGPSLVKPSQTLSLTCSVTGDSITSGYWNWIRKFPGNKLEYMGYISYSGSTYYNPSLKSRISITRDTSKNQYYMQLKSVTTEDTATYYCARYPSPDAMNYWGQGTSVTVSS
VL: not shown
notes: also called hCD22.7 moAb; hCD22.7 clone
binding result: binds
